The record followed here is patent publication US20230220104A1.

Common to all, as to assay: cell-based or functional assay
Experiment [1] deals with human CD73 on cells (H322, MDA-MB-231, HT-144, T cells, CD73-transfected HEK293T) (human) (UniProt P21589).
Experiment [2] shares this target. The source holds these as a separate data set.
The target is the same in experiment [3]. The source holds these as a separate data set.

Like-named read-outs stand apart in the source and are kept apart here.

Chain of human CD73 on cells (H322, MDA-MB-231, HT-144, T cells, CD73-transfected HEK293T) (human) (P21589 27-549): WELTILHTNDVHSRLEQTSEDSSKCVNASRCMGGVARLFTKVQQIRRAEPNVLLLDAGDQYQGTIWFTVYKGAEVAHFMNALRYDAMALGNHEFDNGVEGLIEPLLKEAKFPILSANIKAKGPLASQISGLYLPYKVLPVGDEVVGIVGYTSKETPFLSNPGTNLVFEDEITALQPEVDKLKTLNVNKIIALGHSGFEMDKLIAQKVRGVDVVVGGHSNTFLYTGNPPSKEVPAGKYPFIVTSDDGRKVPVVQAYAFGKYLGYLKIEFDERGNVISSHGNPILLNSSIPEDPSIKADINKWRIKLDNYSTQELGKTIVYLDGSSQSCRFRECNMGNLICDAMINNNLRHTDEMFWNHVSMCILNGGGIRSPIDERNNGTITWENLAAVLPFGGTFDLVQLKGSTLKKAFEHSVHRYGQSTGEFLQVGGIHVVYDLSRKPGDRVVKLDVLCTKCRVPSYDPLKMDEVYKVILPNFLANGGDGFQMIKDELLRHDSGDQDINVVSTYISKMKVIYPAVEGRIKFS

In experiment [1], “Benchmark antibody (antibody having the same sequences as the published variable regions of MEDI9447)” registered an IC50 of AMP degradation suppressive function (cell line of Table 7 not stated; H322 in FIG. 12) of 0.007 µg/mL; an IC50 of AMP degradation suppressive function, H322 cells of 0.091 µg/mL; an IC50 of AMP degradation suppressive function, MDA-MB-231 cells of 0.111 µg/mL. In experiment [2], this substance gave an IC50 of AMP degradation suppressive function, H322 cells of 0.02 µg/mL. Besides, the IC50 of AMP degradation suppressive function, H322 cells in experiment [3] was 0.04 µg/mL.
